± gives the standard error. Fewer inactive variants are shown than the library holds.
B1: glmS ribozyme (parent)
chain: AUAAAAGCGCCAGAACUACAGAAAUGUAGUUGACGAGGAGGAGGUUUAUCGAAUUUUCGGCGGAUGCCUCCAAA

What was measured:
Conditions in all cases: with glucosamine-6-phosphate
glucosamine-6-phosphate [1] = variants of: B1; test: self-cleavage kobs at 40 uM GlcN6P; higher = faster cleavage; RNA array
In short: (§1)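 Glucosamine-6-phosphate, from 40 μM to 10 mM in HEPES/KCl/Mg(OAc)2 buffer, was flowed over sequenced MiSeq chips carrying barcoded ribozyme variants transcribed in situ by E. coli RNA polymerase. A hybridised Cy3 probe tracked the variants at 37 °C as tiles were imaged over ~14 h. kobs, kcat and KM were obtained by fitting normalised per-tile medians to exponential decays and then applying weighted Michaelis–Menten fits across concentrations.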

glucosamine-6-phosphate [2] = variants of: B1; test: self-cleavage kobs at 160 uM GlcN6P; higher = faster cleavage; RNA array
In short: as §1

glucosamine-6-phosphate [3] = variants of: B1; test: self-cleavage kobs at 640 uM GlcN6P; higher = faster cleavage; RNA array
In short: as §1

glucosamine-6-phosphate [4] = variants of: B1; test: self-cleavage kobs at 2500 uM GlcN6P; higher = faster cleavage; RNA array
In short: as §1

glucosamine-6-phosphate [5] = variants of: B1; test: self-cleavage kobs at 10000 uM GlcN6P; higher = faster cleavage; RNA array
In short: as §1

Row | Variant | self-cleavage kobs at 40 uM GlcN6P (glucosamine-6-phosphate [1]) [s⁻¹] | self-cleavage kobs at 160 uM GlcN6P (glucosamine-6-phosphate [2]) [s⁻¹] | self-cleavage kobs at 640 uM GlcN6P (glucosamine-6-phosphate [3]) [s⁻¹] | self-cleavage kobs at 2500 uM GlcN6P (glucosamine-6-phosphate [4]) [s⁻¹] | self-cleavage kobs at 10000 uM GlcN6P (glucosamine-6-phosphate [5]) [s⁻¹]
1 | A12U A52G | 8.7e-05 ± 1.3e-05 | 0.000171 ± 6.4e-05 | 0.000717 ± 0.00014 | 0.00267 ± 0.00049 | 0.00785 ± 0.0012
2 | C11G G35C | < 1e-05 | < 1e-05 | < 1e-05 | < 1e-05 | < 1e-05
3 | G13A C16A A52U | < 1e-05 |  |  | < 1e-05 | < 1e-05
4 | C11U G32C U55G A64C | < 1e-05 |  | < 1e-05 |  | < 1e-05
5 | G41A U49C | < 1e-05 | < 1e-05 | < 1e-05 | < 1e-05 | 
6 | U31G G44U C61U | < 1e-05 |  |  |  | < 1e-05
7 | U31G A53G | 0.000276 ± 4.7e-05 | 0.000661 ± 0.00018 |  | 0.00382 ± 0.00096 | 0.02 ± 0.0035
8 | A33U U49C | < 1e-05 | < 1e-05 | < 1e-05 |  | < 1e-05
9 | G41C C50G | < 1e-05 | < 1e-05 | < 1e-05 | < 1e-05 | < 1e-05
10 | C11G G43C A64U | < 1e-05 |  |  |  | < 1e-05
11 | G35U G60U | < 1e-05 | < 1e-05 | < 1e-05 | < 1e-05 | < 1e-05
12 | C11A C16G U54A C68A | 6.79e-05 ± 2.4e-05 |  |  |  | 5.11e-05 ± 2e-05
13 | A14C A48G U69C | < 1e-05 |  |  |  | 
14 | G38U U47G C70G | 0.000113 ± 3.3e-05 |  |  |  | 9.01e-05 ± 2.3e-05
15 | A6C C8U C68A C70A | < 1e-05 |  |  |  | 
16 | A52G A53C U54A | < 1e-05 |  |  |  | 
17 | U30C A39C G41U | < 1e-05 |  |  |  | < 1e-05
18 | A48G A64G | < 1e-05 |  |  | 7.81e-05 ± 2.4e-05 | 9.59e-05 ± 2.5e-05
19 | G29U U30G U54A | 9.91e-05 ± 2.6e-05 |  |  |  | 0.00383 ± 0.00068
20 | C16U C34A A39U A52U C70A | < 1e-05 |  | < 1e-05 |  | 
21 | A1G | 0.00124 ± 0.00034 |  |  |  | 0.0405 ± 0.014
22 | A12C A42U A64G | < 1e-05 |  | < 1e-05 |  | 

Row | Variant | self-cleavage kobs at 40 uM GlcN6P (glucosamine-6-phosphate [1]) [s⁻¹] | self-cleavage kobs at 160 uM GlcN6P (glucosamine-6-phosphate [2]) [s⁻¹] | self-cleavage kobs at 640 uM GlcN6P (glucosamine-6-phosphate [3]) [s⁻¹] | self-cleavage kobs at 2500 uM GlcN6P (glucosamine-6-phosphate [4]) [s⁻¹] | self-cleavage kobs at 10000 uM GlcN6P (glucosamine-6-phosphate [5]) [s⁻¹]
23 | G35U G37C G40U U56A U65A | < 1e-05 |  |  |  | 
24 | C8U C10A | < 1e-05 | < 1e-05 | < 1e-05 | < 1e-05 | < 1e-05
25 | U56G C67A | 6.65e-05 ± 1.8e-05 | 0.000207 ± 5.3e-05 | 0.00102 ± 0.00014 | 0.000842 ± 0.00014 | 0.00273 ± 0.00081
26 | G43C U56A C61G | < 1e-05 |  |  |  | < 1e-05
27 | A12U A14U A53G | 0.000135 ± 3.3e-05 |  |  |  | 0.00411 ± 0.00079
28 | A14C U57C U69C | < 1e-05 |  |  |  | 
29 | A6G A15C C16U | < 1e-05 |  |  |  | 4.37e-05 ± 1.5e-05
30 | G7U G35U U46A C67U U69C | < 1e-05 | < 1e-05 | < 1e-05 | < 1e-05 | 
31 | A12C G43C | < 1e-05 | < 1e-05 | < 1e-05 |  | 
32 | A36U U54C | < 1e-05 | < 1e-05 | < 1e-05 |  | 
33 | A53U C70U | 0.000741 ± 6.7e-05 | 0.00102 ± 0.00023 | 0.00682 ± 0.0013 | 0.00471 ± 0.0013 | 0.0335 ± 0.0084
34 | A39G A48U C58G | < 1e-05 |  |  |  | < 1e-05
35 | G29A G35A C68G | 0.000947 ± 0.00027 |  |  |  | 0.000106 ± 3.5e-05
36 | C10G A33U G43U G63C C71G | < 1e-05 |  |  |  | 
37 | G9A C11G A53G | < 1e-05 |  |  |  | 
38 | U46G G63C | < 1e-05 | < 1e-05 | < 1e-05 | < 1e-05 | < 1e-05
39 | C8A C34G | < 1e-05 | < 1e-05 | < 1e-05 | < 1e-05 | < 1e-05
40 | C10G A42G | < 1e-05 | < 1e-05 | < 1e-05 |  | 
41 | C10A C70G | 2.53e-05 ± 1e-05 |  | 0.000116 ± 1.8e-05 |  | 
42 | A12C C70U | 0.000475 ± 4e-05 | 0.00111 ± 0.00017 | 0.00328 ± 0.00037 | 0.0217 ± 0.0053 | 0.0163 ± 0.0022
43 | A12G A14U A36G A48G A53G | < 1e-05 |  |  | < 1e-05 | < 1e-05
44 | A6G C11U C16A A64G | < 1e-05 | < 1e-05 | < 1e-05 |  | < 1e-05

— the supplement of paper PMC7125110
